Numbered stars: 1 amine (or outer) side, 2 acyl side, 3 side chain; on linkers, the order of the positions; unused ones are H or OH. Bridge positions count the residues as written; N and C are the ends. Side chains are listed from the residue outwards. Ends that are not written are not given here. * marks the point of attachment. C20 diacid = O=C(O)CCCCCCCCCCCCCCCCCCC(=O)*; C18 diacid = O=C(O)CCCCCCCCCCCCCCCCC(=O)*; C16 diacid = O=C(O)CCCCCCCCCCCCCCC(=O)*; γGlu = O=C(O)[C@H](CCC(=O)[*:2])N[*:1]

The record followed here is patent US20140087995A1 (published 2014).

Experiment [1] concerns the target T1, rat calcitonin receptor (rat, UniProt P32214 25-516).
T1 construct: whole, on cells; Membranes of transiently transfected BHK tk'ts 13 cells (Assay VIII); also called rCTR
T1 sequence (looked up): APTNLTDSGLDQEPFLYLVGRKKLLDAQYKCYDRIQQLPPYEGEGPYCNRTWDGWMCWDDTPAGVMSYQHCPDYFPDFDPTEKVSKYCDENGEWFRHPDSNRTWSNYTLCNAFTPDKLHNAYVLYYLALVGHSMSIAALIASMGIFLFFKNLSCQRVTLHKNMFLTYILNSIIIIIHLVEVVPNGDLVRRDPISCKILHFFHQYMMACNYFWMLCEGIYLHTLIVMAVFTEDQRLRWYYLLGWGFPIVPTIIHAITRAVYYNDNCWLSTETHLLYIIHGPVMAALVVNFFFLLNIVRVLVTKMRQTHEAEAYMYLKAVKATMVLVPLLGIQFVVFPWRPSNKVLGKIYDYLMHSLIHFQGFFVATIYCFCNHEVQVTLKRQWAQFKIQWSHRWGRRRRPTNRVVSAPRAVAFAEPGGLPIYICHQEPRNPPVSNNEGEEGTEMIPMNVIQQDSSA
In words: ratio IC50 rat calcitonin receptor / IC50 rat amylin receptor (reference).

The target in experiment [2] is T2, human calcitonin receptor (human, UniProt P30988 25-474).
T2 construct: whole, on cells; Membranes of a stably transfected BHK cell line (Assay VII); also called hCTR; hCT
T2 sequence (looked up): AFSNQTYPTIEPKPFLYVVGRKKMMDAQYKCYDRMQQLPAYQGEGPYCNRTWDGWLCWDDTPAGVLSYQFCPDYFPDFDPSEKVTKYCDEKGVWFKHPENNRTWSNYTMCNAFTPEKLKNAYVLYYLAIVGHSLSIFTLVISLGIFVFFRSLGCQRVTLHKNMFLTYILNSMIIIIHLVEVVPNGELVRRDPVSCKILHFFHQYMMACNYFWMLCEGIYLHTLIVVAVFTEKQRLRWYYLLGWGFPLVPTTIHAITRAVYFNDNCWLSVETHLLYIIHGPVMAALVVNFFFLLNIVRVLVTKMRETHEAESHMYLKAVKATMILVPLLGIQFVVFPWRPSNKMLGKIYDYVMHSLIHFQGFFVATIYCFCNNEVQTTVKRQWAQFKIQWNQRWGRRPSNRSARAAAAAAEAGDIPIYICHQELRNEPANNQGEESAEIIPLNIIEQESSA
As to the kind of experiment: ratio IC50 human calcitonin receptor / IC50 human amylin receptor (reference). The method, boiled down: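 Scintillation proximity competition binding on cell membranes at 35 ng/μL with SPA beads, in 50 mM Hepes pH 7.4, 1 mM CaCl2, 5 mM MgCl₂, 0.1% OA, 0.02% Tween20. Incubated 120 min at 25° C with shaking. IC₅₀ from one-site competition fit.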

Experiment [3] has as its target T1, rat calcitonin receptor. As to the kind of experiment: SPA competition with 125I-calcitonin, membranes of BHK cells with rat calcitonin receptor (Assay VIII).
For experiment [4], the target named is T3, rat amylin receptor (rat calcitonin receptor + rat RAMP 3) (rat, UniProt P32214 25-516; Q9JJ73 23-147).
T3 construct: whole, on cells; Membranes of transiently transfected BHK tk'ts 13 cells (Assay VI); also called rAmylin-R; rat amylin 3(a) receptor
T3 sequence (looked up) 1: T1 sequence (looked up)
T3 sequence (looked up) 2: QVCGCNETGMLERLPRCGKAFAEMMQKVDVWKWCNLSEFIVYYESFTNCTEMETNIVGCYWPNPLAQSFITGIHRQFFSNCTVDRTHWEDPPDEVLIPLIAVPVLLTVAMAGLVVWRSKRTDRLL
As to the kind of experiment: SPA competition with 125I-rat amylin, membranes of BHK cells with rat calcitonin receptor + rat RAMP3 (Assay VI).

B1: N^ε1-[(4S)-4-carboxy-4-(15-carboxypentadecanoylamino)butanoyl]-[Arg17,Pro21,Pro27,His34]-h-amylin (peptide)
peptide: K([γGlu-C16 diacid])CNTATCATQRLANFLRHSSPNFGAIPSSTNVGHNTY-NH2
modifications: disulfide 2-7; N-terminus assumed
SMILES: CC[C@H](C)[C@H](NC(=O)[C@H](C)NC(=O)CNC(=O)[C@H](Cc1ccccc1)NC(=O)[C@H](CC(N)=O)NC(=O)[C@@H]1CCCN1C(=O)[C@H](CO)NC(=O)[C@H](CO)NC(=O)[C@H](Cc1c[nH]cn1)NC(=O)[C@H](CCCNC(=N)N)NC(=O)[C@H](CC(C)C)NC(=O)[C@H](Cc1ccccc1)NC(=O)[C@H](CC(N)=O)NC(=O)[C@H](C)NC(=O)[C@H](CC(C)C)NC(=O)[C@H](CCCNC(=N)N)NC(=O)[C@H](CCC(N)=O)NC(=O)[C@@H](NC(=O)[C@H](C)NC(=O)[C@@H]1CSSC[C@H](NC(=O)[C@@H](N)CCCCNC(=O)CC[C@H](NC(=O)CCCCCCCCCCCCCCC(=O)O)C(=O)O)C(=O)N[C@@H](CC(N)=O)C(=O)N[C@@H]([C@@H](C)O)C(=O)N[C@@H](C)C(=O)N[C@@H]([C@@H](C)O)C(=O)N1)[C@@H](C)O)C(=O)N1CCC[C@H]1C(=O)N[C@@H](CO)C(=O)N[C@@H](CO)C(=O)N[C@H](C(=O)N[C@@H](CC(N)=O)C(=O)N[C@H](C(=O)NCC(=O)N[C@@H](Cc1c[nH]cn1)C(=O)N[C@@H](CC(N)=O)C(=O)N[C@H](C(=O)N[C@@H](Cc1ccc(O)cc1)C(N)=O)[C@@H](C)O)C(C)C)[C@@H](C)O
For B1, in the experiment with rat calcitonin receptor [1], the “Ratio rCT/rAmylin binding” value amounted to 327. Besides, the “Ratio hCT/hAmylin binding” value in experiment [2] stood at 18.5. Moreover, the IC50 (in general, the concentration needed to halve the response being measured) with rat calcitonin receptor [3] is 404 nM; in experiment [4] it was 1.24 nM.

B2: N^ε1-[(4S)-4-carboxy-4-(17-carboxyheptadecanoylamino)butanoyl]-[Arg17,Pro21,Pro27,His34]-h-amylin (peptide)
peptide: K([γGlu-C18 diacid])CNTATCATQRLANFLRHSSPNFGAIPSSTNVGHNTY-NH2
modifications: disulfide 2-7; N-terminus assumed
SMILES: CC[C@H](C)[C@H](NC(=O)[C@H](C)NC(=O)CNC(=O)[C@H](Cc1ccccc1)NC(=O)[C@H](CC(N)=O)NC(=O)[C@@H]1CCCN1C(=O)[C@H](CO)NC(=O)[C@H](CO)NC(=O)[C@H](Cc1c[nH]cn1)NC(=O)[C@H](CCCNC(=N)N)NC(=O)[C@H](CC(C)C)NC(=O)[C@H](Cc1ccccc1)NC(=O)[C@H](CC(N)=O)NC(=O)[C@H](C)NC(=O)[C@H](CC(C)C)NC(=O)[C@H](CCCNC(=N)N)NC(=O)[C@H](CCC(N)=O)NC(=O)[C@@H](NC(=O)[C@H](C)NC(=O)[C@@H]1CSSC[C@H](NC(=O)[C@@H](N)CCCCNC(=O)CC[C@H](NC(=O)CCCCCCCCCCCCCCCCC(=O)O)C(=O)O)C(=O)N[C@@H](CC(N)=O)C(=O)N[C@@H]([C@@H](C)O)C(=O)N[C@@H](C)C(=O)N[C@@H]([C@@H](C)O)C(=O)N1)[C@@H](C)O)C(=O)N1CCC[C@H]1C(=O)N[C@@H](CO)C(=O)N[C@@H](CO)C(=O)N[C@H](C(=O)N[C@@H](CC(N)=O)C(=O)N[C@H](C(=O)NCC(=O)N[C@@H](Cc1c[nH]cn1)C(=O)N[C@@H](CC(N)=O)C(=O)N[C@H](C(=O)N[C@@H](Cc1ccc(O)cc1)C(N)=O)[C@@H](C)O)C(C)C)[C@@H](C)O
Regarding B2, the “Ratio rCT/rAmylin binding” value in the experiment with rat calcitonin receptor [1] is 40.3. Moreover, the “Ratio hCT/hAmylin binding” value in experiment [2] was 59.4. The IC50 was found to be 47 nM with rat calcitonin receptor [3] and 1.17 nM in experiment [4].

B3: N^ε1-[(4S)-4-carboxy-4-(19-carboxynonadecanoylamino)butanoyl]-[Arg14,Arg17,Pro21,Pro27]-h-amylin (peptide)
peptide: K([γGlu-C20 diacid])CNTATCATQRLARFLRHSSPNFGAIPSSTNVGSNTY-NH2
modifications: disulfide 2-7; N-terminus assumed
SMILES: CC[C@H](C)[C@H](NC(=O)[C@H](C)NC(=O)CNC(=O)[C@H](Cc1ccccc1)NC(=O)[C@H](CC(N)=O)NC(=O)[C@@H]1CCCN1C(=O)[C@H](CO)NC(=O)[C@H](CO)NC(=O)[C@H](Cc1c[nH]cn1)NC(=O)[C@H](CCCNC(=N)N)NC(=O)[C@H](CC(C)C)NC(=O)[C@H](Cc1ccccc1)NC(=O)[C@H](CCCNC(=N)N)NC(=O)[C@H](C)NC(=O)[C@H](CC(C)C)NC(=O)[C@H](CCCNC(=N)N)NC(=O)[C@H](CCC(N)=O)NC(=O)[C@@H](NC(=O)[C@H](C)NC(=O)[C@@H]1CSSC[C@H](NC(=O)[C@@H](N)CCCCNC(=O)CC[C@H](NC(=O)CCCCCCCCCCCCCCCCCCC(=O)O)C(=O)O)C(=O)N[C@@H](CC(N)=O)C(=O)N[C@@H]([C@@H](C)O)C(=O)N[C@@H](C)C(=O)N[C@@H]([C@@H](C)O)C(=O)N1)[C@@H](C)O)C(=O)N1CCC[C@H]1C(=O)N[C@@H](CO)C(=O)N[C@@H](CO)C(=O)N[C@H](C(=O)N[C@@H](CC(N)=O)C(=O)N[C@H](C(=O)NCC(=O)N[C@@H](CO)C(=O)N[C@@H](CC(N)=O)C(=O)N[C@H](C(=O)N[C@@H](Cc1ccc(O)cc1)C(N)=O)[C@@H](C)O)C(C)C)[C@@H](C)O
notes: also called compound 83
As to B3, in the experiment with rat calcitonin receptor [1], the “Ratio rCT/rAmylin binding” value stood at 49.7. Moreover, in experiment [2], the “Ratio hCT/hAmylin binding” value stood at 146. The IC50 with rat calcitonin receptor [3] worked out at 140 nM; in experiment [4] it was 2.83 nM.

B4: N^ε1-[(4S)-4-carboxy-4-(19-carboxynonadecanoylamino)butanoyl]-[Ala14,Arg17,Pro21,Pro27,Pro34]-h-amylin (peptide)
peptide: K([γGlu-C20 diacid])CNTATCATQRLAAFLRHSSPNFGAIPSSTNVGPNTY-NH2
modifications: disulfide 2-7; N-terminus assumed
SMILES: CC[C@H](C)[C@H](NC(=O)[C@H](C)NC(=O)CNC(=O)[C@H](Cc1ccccc1)NC(=O)[C@H](CC(N)=O)NC(=O)[C@@H]1CCCN1C(=O)[C@H](CO)NC(=O)[C@H](CO)NC(=O)[C@H](Cc1c[nH]cn1)NC(=O)[C@H](CCCNC(=N)N)NC(=O)[C@H](CC(C)C)NC(=O)[C@H](Cc1ccccc1)NC(=O)[C@H](C)NC(=O)[C@H](C)NC(=O)[C@H](CC(C)C)NC(=O)[C@H](CCCNC(=N)N)NC(=O)[C@H](CCC(N)=O)NC(=O)[C@@H](NC(=O)[C@H](C)NC(=O)[C@@H]1CSSC[C@H](NC(=O)[C@@H](N)CCCCNC(=O)CC[C@H](NC(=O)CCCCCCCCCCCCCCCCCCC(=O)O)C(=O)O)C(=O)N[C@@H](CC(N)=O)C(=O)N[C@@H]([C@@H](C)O)C(=O)N[C@@H](C)C(=O)N[C@@H]([C@@H](C)O)C(=O)N1)[C@@H](C)O)C(=O)N1CCC[C@H]1C(=O)N[C@@H](CO)C(=O)N[C@@H](CO)C(=O)N[C@H](C(=O)N[C@@H](CC(N)=O)C(=O)N[C@H](C(=O)NCC(=O)N1CCC[C@H]1C(=O)N[C@@H](CC(N)=O)C(=O)N[C@H](C(=O)N[C@@H](Cc1ccc(O)cc1)C(N)=O)[C@@H](C)O)C(C)C)[C@@H](C)O
notes: also called compound 94
In the case of B4, the “Ratio rCT/rAmylin binding” value in the experiment with rat calcitonin receptor [1] is 280. Besides, the “Ratio hCT/hAmylin binding” value in experiment [2] stood at 46.3. The IC50 with rat calcitonin receptor [3] was 111 nM; in experiment [4], 0.397 nM.

B5: N^ε1-[(4S)-4-carboxy-4-(19-carboxynonadecanoylamino)butanoyl]-[Ala14,Arg17,Pro21,Pro27,His34]-h-amylin (peptide)
peptide: K([γGlu-C20 diacid])CNTATCATQRLAAFLRHSSPNFGAIPSSTNVGHNTY-NH2
modifications: disulfide 2-7; N-terminus assumed
SMILES: CC[C@H](C)[C@H](NC(=O)[C@H](C)NC(=O)CNC(=O)[C@H](Cc1ccccc1)NC(=O)[C@H](CC(N)=O)NC(=O)[C@@H]1CCCN1C(=O)[C@H](CO)NC(=O)[C@H](CO)NC(=O)[C@H](Cc1c[nH]cn1)NC(=O)[C@H](CCCNC(=N)N)NC(=O)[C@H](CC(C)C)NC(=O)[C@H](Cc1ccccc1)NC(=O)[C@H](C)NC(=O)[C@H](C)NC(=O)[C@H](CC(C)C)NC(=O)[C@H](CCCNC(=N)N)NC(=O)[C@H](CCC(N)=O)NC(=O)[C@@H](NC(=O)[C@H](C)NC(=O)[C@@H]1CSSC[C@H](NC(=O)[C@@H](N)CCCCNC(=O)CC[C@H](NC(=O)CCCCCCCCCCCCCCCCCCC(=O)O)C(=O)O)C(=O)N[C@@H](CC(N)=O)C(=O)N[C@@H]([C@@H](C)O)C(=O)N[C@@H](C)C(=O)N[C@@H]([C@@H](C)O)C(=O)N1)[C@@H](C)O)C(=O)N1CCC[C@H]1C(=O)N[C@@H](CO)C(=O)N[C@@H](CO)C(=O)N[C@H](C(=O)N[C@@H](CC(N)=O)C(=O)N[C@H](C(=O)NCC(=O)N[C@@H](Cc1c[nH]cn1)C(=O)N[C@@H](CC(N)=O)C(=O)N[C@H](C(=O)N[C@@H](Cc1ccc(O)cc1)C(N)=O)[C@@H](C)O)C(C)C)[C@@H](C)O
notes: also called compound 93
In the case of B5, in the experiment with rat calcitonin receptor [1], the “Ratio rCT/rAmylin binding” value was 83.2. Further, in experiment [2], the “Ratio hCT/hAmylin binding” value worked out at 101. Further, the IC50 in the experiment with rat calcitonin receptor [3] came to 131 nM; in experiment [4], 1.58 nM.
